In the DeepSol protein solubility set:

test: soluble on expression in E. coli; label from the status in PepcDB or PDB records

| Sequence | soluble on expression in E. coli |
| --- | --- |
| MRSMNTHAVLQFLSGNGIAILQFFHQLILQGKTQDDLTRDYALDRAWVGSVMKLAKELFDPRPSPSRDECISVAKELGLGIEVLKAINPALGRLNKKASMTKDDLRLRLYREARGMTPAEAKAHANTRVVALNDACGATPRKPAVRISKSTDAAGQRHIHASLDDATASAVAEKLHAGARWLTKKTPSLSYSQAMAEIFAIAILDSPALGGRKRREGLILLPADGYTHRGNGMLATTDGSLIPAHKLAEHLLEEYGYAMLYALNDEGVPEPVDLYRTKRYANDKQRLMITADQLTCSHPDCHRLANNSHIHHCTAWERGGETNVKNLVAACATHNRRNDDDPERHKNGYFRRMPHSGCAGFQPADPSLPPRRTRVPFAAYSARVWACDHFGVTV | not soluble |
| MKIAFLFRTSPHGTSISREGLDAILAATAFCEPNDIGIFFIDDGVLNLIDNQQPEIIQQKDFIRTFKLLDLYDVEQRFICTASLQKFKLDNRELILSCEKIDRSLLLEKLNQAGKLFTF | not soluble |
| MSLSQIAVRTFHDIRAALLARRELALLDVREEDPFAQAHPLFAANLPLSRLELEIHARVPRRDTPITVYDDGEGLAPVAAQRLHDLGYSDVALLDGGLSGWRNAGGELFRDVNVPSKAFGELVEAERHTPSLAAEEVQALLDARAEAVILDARRFDEYQTMSIPGGISVPGAELVLRVAELAPDPRTRVIVNCAGRTRSIIGTQSLLNAGIPNPVAALRNGTIGWTLAGQQLEHGQTRRFGAISQDTRKAAAQRARAVADRAGVERLDLAGLAQWQDEHDRTTYLLDVRTPEEYEAGHLPGSRSTPGGQLVQETDHVASVRGARLVLVDDDGVRANMSASWLAQMGWQVAVLDGLSEADFSERGAWSAPLPRQPRADTIDPTTLADWLGEPGTRVLDFTASANYAKRHIPGAAWVLRSQLKQALERLGTAERYVLTCGSSLLARFAVAEVQALSGKPVFLLDGGTSAWVAAGLPTEDGESLLASPRIDRYRRPYEGTDNPREAMQGYLDWEFGLVEQLGRDGTHGFFVIEGGSHHHHHH | soluble |
| MGSDKIHHHHHHMSFSLRNYQVELILDIKKSMLAGHRKIMVQSPPRSGKTVCMAHIAKNATNKQKTVLFFSHRKEINEQVFETFSRAGVDMGLVYIGTVGSIVRKLGKLPVPTLVLVDEAHHIKASQYQQILKYYHQAVQLFFTGTPIRLDGSGFDDMADDLVVGKSILWLQEHGNISEFDYYSINLLDQAKLRKRQGEYTNQSIDDSFDFSNSTAIT | not soluble |
| GMAEPKFTSFTTADFINDVDMELFIDAVEKTAPVWVKEMKSRGLLKFSMNRVWNKGEVFRVVMTYEYKDRASFEANIAYLEDTFGKNPVFLQLVTTAKFTTSRCLVVMEV | soluble |
| SLTTFATEWEKQLELYPEEYRKAYRRVKRASEILLREPEPQVGLTPKEVIWTKNKTKLYRYIPKQEKTQRVPILLIYALINKPYIMDLTPGNSLVEYLVDRGFDVYMLDWGTFGLEDSHLKFDDFVFDYIAKAVKKVMRTAKSDE | soluble |
| MKRLLLTLTFPLFFVGCASQNPTHMAFSPQVPDISQQTSRPVQISLDTIDSRNAEYVARFMEEGTKTRLVGPSEPPKLLLDEVFRNGFTQAGYQIDPSATNSIQVQLEELQMDVTKKTFGYEAKHSVRIAVQARNSSQELVKRYKAKGVLKGPLTPDFATLEMDMNKLLGQLTGEILNDPELNQFLQK | soluble |
| MEVKIFNTQDVQDFLRVASGLEQEGGNPRVKQIIHRVLSDLYKAIEDLNITSDEYWAGVAYLNQLGANQEAGLLSPGLGFDHYLDMRMDAEDAALGIENATPRTIEGPLYVAGAPESVGYARMDDGSDPNGHTLILHGTIFDADGKPLPNAKVEIWHANTKGFYSHFDPTGEQQAFNMRRSIITDENGQYRVRTILPAGYGCPPEGPTQQLLNQLGRHGNRPAHIHYFVSADGHRKLTTQINVAGDPYTYDDFAYATREGLVVDAVEHTDPEAIKANDVEGPFAEMVFDLKLTRLVDGVDNQVVDRPRLAV | soluble |
| MSLSDHKIDRIRVHRVLIPGKAVHSHGIGDVAGIHAVILEVITDTGLTGWGEASPWPAFTGTAEGTVAALYTYLRPHLIGQDPVQVERHMRDAEALVVGHPEAKAALEMALLDLTGQISGLSVCELVGGRMRDDMGLSFSVANPDFGKDLEDVAAMWAEGVRIFKIKTGFKSHGFDLMRLEKLRGIYGAEADLRIDYNQGLPAYDAVRCIRDLEAFRPTFVEQPVKMHERDALAHIAHVIETPIMADESVFGVREALHGVQIRMADIFSLKVMKSGGIRRALEVSAIARAAGIEVYGGCMFETGLAHAAGAHLMAALPELRLDCEFYMSTYYASEDILTEPFPVRGGRVHVPEGPGLGVAVDPAMLAKYAQAEALGEGHHHHHH | soluble |
| AHHHHHHGSDWKGRDVISIRDFSKEDIEIVLSTAERLEKELKEKGQLEYARGKILATLFFEPSTRTRLSFESAMHRLGGAVIGFAEASTSSVKKGESLADTIKTVEQYSDVIVIRHPKEGAARLAAEVAEIPVINAGDGSNQHPTQTLLDLYTIRKEFGKIDGLKIGLLGDLKYGRTVHSLAEALAYYDVELYLISPELLRMPRHIVEELREKGVTVYETSDLMSVIGELDVLYVTRIQKERFPDEQEYLKVRGSYQVNLQVLSKAKETLKVMHPLPRVDEIHPEVDKTKHAIYFKQVFNGIPVRMALLGLVLGVI | soluble |
| MGSDKIHHHHHHMSVNPLFKVILHPFIKESIASLKAMTNLTGVAGDPFMDKVEDFRFKGYAVCSDVTGSLDGVIMMHHYPETAIAIGNSVCQNMFNETYAFDAINDDLRNALAEWGNTIVGRSTDLHSRHKLEYGFSSPYFVEDLTEMDKYLVGVKQVITVPIMVEGIGRYYFNLLIRDVVEQVANVDIDAQSIDVENTHTTPLPLTSTVLVVDDSAMIRKAISRFLNNLGYHNVIEADDGIGAIEAVKAGKVDFIFMDVVMTRLNGDAALAELRNMGSQVPVVMLSSVTDNILVKQCQKHGISGFIFKPINANNGAETIAKYLKIAAAVAI | not soluble |
| MNAQIKIINTANGYMALCQDTPEDITPAWFSVDFWREKSAVVGSSKGRYTTWFVAFEHSHWVLRHYWRGGMMEKFSKDAYFYTGLENTRAMGELRLLDALYREQFAVPKPIAANIVRDGLFYRADIIIERVDGAEDLVAKLTKGTMTQAQWHALGATIAQFHRRGVYHADLNAKNILWQPQQTDSAQERFYLIDFDRGELKTPNAKWQKANLDRLLRSFNKEQGKQPTLAFTPANWAALLEGYHAVVPKVAAALEHHHHHH | soluble |
| MGHHHHHHSHMVLLHVKRGDESQFLLQAPGSTELEELTVQVARVYNGRLKVQRLCSEMEELAEHGIFLPPNMQGLTDDQIEELKLKDEWGEKCVPSGGAVFKKDDIGRRNGQETSGSRCLCYHGDGERCLGPASRRGDDCLPHGVATV | not soluble |
| MTTTDKQLLYVRTEMTIPGVGTSIHIAELEPTSTTHCTLHRILELDPSNTIRGAAHGNAVAGMAAAPERTVPHPNSYANFPDITATHLLQEEFEVLWAEAVAKFSELR | not soluble |
| MGSDKIHHHHHHMGMDFKVPDYMQELALASGQGLDQLSAVLARILDHPVLISSSAYKLFSSSSHYDFESFHIYSNQPRTGSDALFTCHILTDTMQSLALGRVVAPFGRTLGYIFMLTDDDSPDPTHFKPLLDYAASLCAVHLQNRLELKQEQSKFKNAFLYDLIYGNLKRNDEIIATGELWGWNFRRPHTIMVFLLPEPDFYTTEWHLMDVLSRIVEQNFIEIYYKNPAVILRQNELILFVPMQTDKPAVQTEELLVFADKILSQVQNTELKGLAACGVGQAYSEATVLFRSYQEAKVALEMGKLLGIPIPFFRDLGLERILYKHDLQDLKEYYLHVLGELHKQDDQDSSLVTILESFAENQFDVGKTAKALFMHPNTLRYRLNKIENILGKPLTDNHARLDIMAAFKIKRLHTIETLLA | not soluble |
| MRGSHHHHHHGSIWEWKEAHFQDAFSSFQAMYAKSYATEEEKQRRYAIFKNNLVYIHTHNQQGYSYSLKMNHFGDLSRDEFRRKYLGFKKSRNLKSHHLGVATELL | soluble |
| MSDQPIVLTSFYPKEGGARDKILLDGKNFGTDVSKIKVYFNNARASVVSSSGSRIYAIVPRLPGDNPRISVVVDTDSVAYEETYAYHTQALVSTVTGNGETSFLAGTLSTAQVYGKYLDLDAEGNLFMSWRDGGTFGIARINEQQNIVTPLIEADAANRILYANGLTVDRATGMLTAAHESVKEVTFTFDPREAWYPRQRNIKYSQSDLNSIVDADRYKNFVTFCPYDGYLYTRYRDGKIAKIDPNTFEGHIIHQGPSGSQYGQAINPAKPWLLYITLHSNAPTAYRQGISVLDLRDPDGTGGFKRLNAPGGSAFRDGPIEDALFNYPKDIKFDNDGNMFVADYGNHCIRMISADNIVTTVAGQPGVAGYKDGGPVESLFKNPWGVAVNEQGDIYIADWGNARIRKLVIELEHHHHHH | soluble |
| GMQTTEIDLRLTEVSQQLTMVLVPGLRDSDDEHWQSHWERRFPHWQRIRQREWYQADLDRWVLAIRRELSVCTQPVILIGHSFGALAACHVVQQGQEGIAGVMLVAPAEPMRFEIDDRIQASPLSVPTLTFASHNDPLMSFTRAQYWAQAWDSELVDVGEAGHINAEAGFGPWEYGLKRLAEFSEILIPNR | soluble |
| MKIDILTLFPDMFTGVFGSSILKKAQEKEAVELRVVNFRDYTTSKHNSVDDYPYGGGAGMVLTPQPIFDAVEDLTKETERKPRVVLMCPQGERFTQKKAEELAEEEHLIFVCGHYEGYDERIREHLVTDEISIGDYVLTGGELASMVITDSVVRLLPGVLGNHASQVEDSFSTGLLEHPHYTRPADFRGMKVPDVLMSGNHKNIDEWRHKESLRRTYTRRPDLLEERELSKQEKKWLEQIKEGK | not soluble |
| MGHHHHHHMEARNMTPFTYFSLPMQKLFLRNQAAVRNKPYAKYFRSEMRVPLSAVRKIQQGPMALEDTLTPSIEDINRLLEPDFVSEESGYALLPGPMAYVQSRKFFPGCTAQMFKWWFIWHPAESERYTLWFPYAHVSNPCVHHQRLRDESLSFEERLYGNTFCASEYVGDRLMHLHIDFQQPASLGLNTDLYREAKIDGSVSALMSLADHPEVPVSLMVHLFKEVPDGMYLTSRYWVGAHPSMARFPGAEKAASLLKENGFGEAELETLAYEFAVHDMCEFNHLASFLPDLYREFGTPAA | soluble |
| MTHQKRLSVPKSWKVGRKGNKWISTTRPGPHSQARSLPLGLIIRDVLKLVDNNREGKRILSEGKVLVDGISRKDLRFPVGLFDVITLPLVNEAYRMLQDEKGRLVLYKLNETNVNKLCRINNKTTVKGGKIQLNLNDGTNILGSNDYGTKDSLILSIPDKHVVKHLKFEVGNLAMVIGGQHSGETGKIMEIREVKSSRHNTVMISGETDFETIEDYVIVIGEDKPEIRLGGEISELEHHHHHH | soluble |
| MPKASDIKKGSAIEHNGKVFFVKEISKLTPSGRAGATLFRMRMYDVATGAKSDESFKADDMINLADFSRRSATFSYVDGNEYVFMDSEDYTPYNFNKEAIEEELLFITEETQGLQILIVDGAPVAIELPSAVDLEIVETAPSIKGASASARTKPATMTTGLTVQVPEYIANGEKVKINTTEHKFMSRALEHHHHHH | not soluble |
| MGSDKIHHHHHHMSTKHAKAAEKFLENPVMAAWHNETLWMVRAKRDKMSKEVPEWEELRDKACALKLYSNSHLEELLLEFEKNATANGAIVHWAKDAEEYRAIVYEILSSHGVKHFVKSKSMLAEECELNPFLIEKGIDVVESDLGERILQLMNLAPSHIVLPAIHIKREQVGELFEKEMGTEKGNFDPTYLTHAARKNLRNIFLNAEAAMTGANFAVASTGDIVVCTNEGNADMGTSCPTLNIAAFGMEKIVPDMEALGVFTRLLARSATGQPITTYTSQYRNPREGGEYHIIIVDNGRSALLAHPDHIKTLNCIRCGACMNTCPVYRRSGGYSYTYFIPGPIGINLGMAHDPEKYYDNLSACSLCMSCSDVCPAKVDLAEQIYKWRQDLDKIGKANTGKKIMSGGMKVLMDHPTLFNAALWAAPVVNHLPRFMKYNDLDAWGKGRELPKFAGESFNEMWKKNKVQGKEENK | not soluble |
